In the test the target is T1, human IL-6 (human, UniProt P05231 30-212).
T1 construct: Soluble analyte injected at 1.25, 2.5 and 5 nM in the BIAcore assay; also called hIL-6
The experiment in a line: SPR (BIAcore 2000), fusion captured by anti-human Fc, hIL-6 injected. Here is the method: Affinity Measurements. The affinity of the various scFv-scFv-Fc fusion proteins for human IL-6 was measured using a BIAcore 2000. […] Kinetic analysis using BIAevaluation software was performed to obtain the association and dissociation rate constants.
(SPR reads the build-up and loss of mass on a sensor chip optically.)

Among the data in US20050074855A1 (Regeneron, published 2005) are Kd values, retold here.

As usually defined, the Kd is the free concentration of one partner at which half of the binding sites on the other are occupied at equilibrium, for simple one-to-one binding.

T1 sequence (P05231 30-212 limits assumed): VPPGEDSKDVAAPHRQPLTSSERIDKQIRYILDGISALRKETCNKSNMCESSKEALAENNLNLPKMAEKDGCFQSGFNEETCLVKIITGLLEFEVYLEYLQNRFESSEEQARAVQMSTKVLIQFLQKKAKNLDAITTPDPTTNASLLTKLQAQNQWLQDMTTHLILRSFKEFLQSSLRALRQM

B1: 8F10.8F10 ScFv-ScFv-Fc (Fc fusion)
chain: QVQLQQSGAELAKPGASVKMSCKASGYTFTTYWMHWIKQRPGQGLEWIGYINPSTGYSEFNQKFNDKATLTADRSSSTAYMQLNSLTSEDSAVYYCARDAYYGNYEDYWGQGTTLTVSSAGGGGSGGGGSGGGGSSIVMTQTPKFLLVSAGDRVTITCKASQSVSYDVAWYQQKPGQSPKLLIYYESNRYSGVPDRFTGSGNGTDFTFTISTVQAEDLAVYFCQQVYTSPYTFGGGTKLEIKRGGGGSGGGGSGGGGSQVQLQQSGAELAKPGASVKMSCKASGYTFTTYWMHWIKQRPGQGLEWIGYINPSTGYSEFNQKFNDKATLTADRSSSTAYMQLNSLTSEDSAVYYCARDAYYGNYEDYWGQGTTLTVSSAGGGGSGGGGSGGGGSSIVMTQTPKFLLVSAGDRVTITCKASQSVSYDVAWYQQKPGQSPKLLIYYESNRYSGVPDRFTGSGNGTDFTFTISTVQAEDLAVYFCQQVYTSPYTFGGGTKLEIKR
notes: Monospecific tandem scFv-Fc; not shown: Fc domain of human IgG1
For the molecule B1, the Kd stood at 296 pM.

B2: 8F10 ScFv-Fc (Fc fusion)
chain: QVQLQQSGAELAKPGASVKMSCKASGYTFTTYWMHWIKQRPGQGLEWIGYINPSTGYSEFNQKFNDKATLTADRSSSTAYMQLNSLTSEDSAVYYCARDAYYGNYEDYWGQGTTLTVSSAGGGGSGGGGSGGGGSSIVMTQTPKFLLVSAGDRVTITCKASQSVSYDVAWYQQKPGQSPKLLIYYESNRYSGVPDRFTGSGNGTDFTFTISTVQAEDLAVYFCQQVYTSPYTFGGGTKLEIKR
notes: how it was built is not described; not shown: Fc domain of human IgG1
Consider B2, for which the Kd worked out at 430 pM.
